Reference: the nanobody polyreactivity screen of Harvey et al. (2022)

Assay: yeast display, Sf9 membrane polyspecificity reagent, FACS + sequencing; frameworks hold sequencing errors
How it was run: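 Synthetic nanobody libraries on Saccharomyces cerevisiae BJ5465 were galactose-induced for 36–48 hours, stained 1 hour at 4 °C with 10% biotinylated, detergent-solubilized Sf9 membrane reagent and enriched on streptavidin microbeads. FACS then separated cells into low and high (top ~1%) gates by anti-HA (expression) and streptavidin (reagent binding) fluorescence. Genes were colony-PCR amplified, MiSeq 2 × 250 sequenced and CDR-length filtered. A clone's polyreactivity label is that of its gate of origin.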

Sequence | polyreactivity (PSR sort gate)
QFQRVDSGGGLVQAGGSLRLSCAASGSTLAVNAMGWYRQAHGKERELVAAITRSGGRTYYADSLKWRFTISRDNAKNTVYLQMNSLKPEDTAVYYFGAKWYYPFIPKRTTRYGFDYWGHGTQVTVSS | high polyreactivity
QGHLVESGGGLVQAGGSLRLSCAASGVTFYTYDMGWYRQAPGKERELVAGIDWSGGSTYYADSVNGRFTISRDNAKNTVDLLMNSLKPEYTAVYYCASDYYYASQMDYWGQGTQVTVSS | low polyreactivity
QGLLVESGGGLVQAGGSLRLTCAASGFIFSGYAMGWYRPAPGKERELVAAISWSGSSTYYADSVKGRFTISRDNAKNTVYLQMNSLKPEDTAVYYCAAWYTSTRPYDYWGQGTQVTVSS | high polyreactivity
QGQHVESGGGLVHAGGSLRLSCAASGSIFPYYAMGWYRQRPGKERELVAAITDCGSTNYADSVKGRFTISRDNAKNTVYLQMNSLKPEDTAVYYCNKLAGYYDYDYWGQCTQVTVSS | low polyreactivity
QGQHVESGGGLVQAGGSLRLSCAASGSIFAAYAMGWYRQATGKERELVAPIDRGGSTDYADSVKGRFTISRDNAKNTVFLPMNSLKPEDTAVYYCDKGYDYYVRRYYYWGQGTQVTGSS | high polyreactivity
QGQHVESGGGLVQAGGSLRLSCDASGSTIYQYAMGWYRQAPGKESELVAAISGISGSTSYADSVTGRFTISRDNAKNTVYLQMNSLKPEDTAVYDCAKGTAPIPYRGRVGTSKSDYWGQGTQVTVSS | low polyreactivity
QGQHVESGGGLVQAGGSLRLSSAASGITISYYGMGWYRQERGKDRELVASITKRGGRTYYADSVKGRFTISRDNAKNTVYLQMNSLKPEETAVYYCAADRAAPRYDYWGQGTQVTVSS | high polyreactivity
QGQHVESGGGLVQARGSRRLSCAPSGRTFGYDAMGWYRQAPGKERELVAAINYSGVSTYYADSVKGGFTISRDTAKNTVYLQRNSLKPEDTAGSYCAAKGRYSVYSRNSWGQGTQVTVSS | high polyreactivity
QGQLEESGGGLVQAGGSLRLTCAASGRNLRTYAMGWYRQATGKERELVAAISRGGSTNYADSVKGRFTISRDNAKNTVYLQMHSLKPEDTAVYYCAAGYVRYYSDYVSYVYWGQGTQVTVSS | low polyreactivity
QGQLEESVGGLVQAGGSLRLSCAASGRIFRYYAMGLYRQAPGKERELVAAIRSGGSTNYADSVKGRFTISRDNAKNTVYLQMKSLKPEDTAVYYCNARYRYFKGGYWGQGTQVTVSS | high polyreactivity
QGQLVASGGGLVQAGGSLRLSSAASGSIFWLSTMGWSRQGPGKEREWVAAITGSGSATYYADSVKGRFTISRDYAKNTVYLQMTTLKPEDTADYYCAAYWSSARRRYDYWGQGSQVTVSS | high polyreactivity
QGQLVDSGGGLVQAGGSLRLICAASGYIFRLYAMGWYRHAPGKERELVAAISRRGGSTYYADSVKGRFTISRDNAKITVYLQMNSLKPEDTAVYYGATDHSYIDDYWGQGTQVTVSS | high polyreactivity
QGQLVESGGALVQAGGSLRISCAASGRTISQNSMGLYRPAPGKERELVAAIRRGGSTNYADSVKGRFTISRDNAKNTVFLQMNSLKQEDSAFYYCAGDLRRNGWGFDYWGQGTQVTVSS | high polyreactivity
QGQLVESGGALVQAGGSLRLSCAPSGSTFGVYTMGWYRQAPGKERELVAAITKSGGSTYYADSVKGRFTISRDNAKNTVYLQMNSLKPEDTAVYYCNTDYGSYLYYRYGYWGQGTQVTVSS | low polyreactivity
QGQLVESGGGIVQAGCSLLLSCSASGLIFRRKTLGWYRQAPGTERELVAVISSSGSSTYYADSVKGRFTISRDNAKNTVYLQMNSLKPEDTAVYYCAARYAIGPGYDYWGQGTQVTVSS | high polyreactivity
QGQLVESGGGLGQAGGSLRLSCAASGSTFGDSAMVWYRQAPGKERELVAGISARGGRTYYADSVKGRFTISRDNAKNTVYLQMNSLKPEDTAVYDCNARTGYQDGSYGNDYWGQGTQVTVSS | high polyreactivity

Sequence | polyreactivity (PSR sort gate)
QGQLVESGGGLGQEGGSLRLICAASGNTFDYYVMGWYRQAPGKERELVAVITSGSSTYYADSVKGRFTISRDNAKNTVFFQMNSLQPEDTAVYYCAKTTRRPGLRSYDYWGQGTQVTVSS | high polyreactivity
QGQLVESGGGLVQAGCSLRLSCAASGSNFYYKAMGWYRQAPRKERELVARISRSGGSTYADSVKGRFTISRDNAKNTVYLQMNSLKPEDTAVYYCNADAYGTPEFTPYSVRYDYWGQGTQVTVSS | low polyreactivity
QGQLVESGGGLVQAGGILRLRCAACGSTILVYAMGWYRHAPGQERELVAFIDNGGDTYYADSVKGRFTISRDNAKNTVYLQMYSLKPEDTEVYYCADDLSYLGYWEYDYWGQGTQVTVSS | low polyreactivity
QGQLVESGGGLVQAGGSLRLRSAASGRTFNYYAMGWYRQAHGKERELVATSSWSGVSTRYADSVKGRFTISRDNAKNTVYLEMNSLNPEDTAVYYCNAGYSKRSFYSAYGYWGEGTQVTVSS | high polyreactivity
QGQLVESGGGLVQAGGSLRLSCAASGFSFQYYAMGWSRHAHGKERELVAAINRGGGTHYADSVKGRFTISRDNAKNTVYFQMHSLKPEDTAVYYCNKVYYWPGSRPSRYEYWGQGTQVTVSS | low polyreactivity
QGQLVESGGGLVQAGGSLRLSCAASGFSYGFYAMGWYRQAPGKERELVASNSNGDSTNYADSVKGRFTISRDNAKNTVYLQMNSLKPEDTAVYYCATYGGYNPSPLYWGQGTQVTVSS | high polyreactivity
QGQLVESGGGLVQAGGSLRLSCAASGFTFKFYAMGWYRQAPGKEREFVAAISGSGGSTYYAHSVKGRFTISRDNAKNTVYLQMNSLKPEDTAVYYCAAEVPGKPYGRSRYSFRHDYWGQGTQVTVSS | low polyreactivity
QGQLVESGGGLVQAGGSLRLSCAASGGTFSDNVMGWYRQAPGKERELVAANSRSGGSTYYADSVKGRNTISRDNAKNTLSLQMNSLKPEDTAVYYCNAIGSKRGAYKAAFNYWGQGTQVTVSS | high polyreactivity
QGQLVESGGGLVQAGGSLRLSCAASGITFYSYAMGWYRQAPGKERELVAAITLTGGTTYYADSVKGRFTISRDNAKNTVYLQMNSLKPEDTAVYYCNSDYGGGVDGTYKYYSEYDYWGQGTQVTVSS | low polyreactivity
QGQLVESGGGLVQAGGSLRLSCAASGITYYKYVMAWYIQAPGKERELVAAISRSSGSTYYADSVKGRFTISRDNAKNTVYLQMNSLKPEDTAVYYCARDQGKLVVPYDYWGQGTQVTVSS | high polyreactivity
QGQLVESGGGLVQAGGSLRLSCAASGLIFYKYAMGWYRQAPGKERVLVAAISSSGGSTYYGDSVKGRFTISRDTAKNTVYFQMNSLKPEDTADSSCAARTNRRGYHDWGQGTQVTVSS | high polyreactivity
QGQLVESGGGLVQAGGSLRLSCAASGRIFYTNAMGGYRQARGKERELVAGINYSGGNTYADSVKGRFTISRDNAKNTVYLQMNSLKPEDTAVYYCAARGWSHYGYGDNYRHGYWGQGTQVTVSS | high polyreactivity
QGQLVESGGGLVQAGGSLRLSCAASGRTFDSNAMGWYRQAPGKERELFAAISQRGGRTYYADSVKGRFTISRDNAKNTVYFQMNSLKQVYTAFYYCNKVGRRKLDYWGQGTQVTVSS | high polyreactivity
QGQLVESGGGLVQAGGSLRLSCAASGRTFYTYAMGWYSPAAGKERELVAAMTRSGGRTYYADSVKVRFTISRDNAKNTVYLQMNSLKPEDTAVYYCGAKTFYWWADYDYWGQGTQVTVSS | high polyreactivity
QGQLVESGGGLVQAGGSLRLSCAASGRTFYVNAMGWYRQAPGKERELVAGISFSDGSTYYADSVKGRFTISRDNAKNSVYLQMNSLKPEDTAVYYCATVGAFDIYYGYGYWVQGTQVTVSS | low polyreactivity
